Assay results from patent publication US20200002432A1, “ANTI-CD98 ANTIBODIES AND ANTIBODY DRUG CONJUGATES” (AbbVie Inc., priority 2016, published 2020).
Numbering of substitutions follows the chain as printed.

How the values were obtained:
[1] = target: T1, Cynomolgus monkey CD98 ECD with C-terminal His-tag (cynomolgus monkey, UniProt P08195 105-529 (human entry)); experiment: SPR (Biacore), mAb captured on anti-Fc, CD98 ECD as analyte
T1 construct: also called cyCD98 ECD; recombinant cynomolgus monkey CD98 extracellular domain
T1 chain: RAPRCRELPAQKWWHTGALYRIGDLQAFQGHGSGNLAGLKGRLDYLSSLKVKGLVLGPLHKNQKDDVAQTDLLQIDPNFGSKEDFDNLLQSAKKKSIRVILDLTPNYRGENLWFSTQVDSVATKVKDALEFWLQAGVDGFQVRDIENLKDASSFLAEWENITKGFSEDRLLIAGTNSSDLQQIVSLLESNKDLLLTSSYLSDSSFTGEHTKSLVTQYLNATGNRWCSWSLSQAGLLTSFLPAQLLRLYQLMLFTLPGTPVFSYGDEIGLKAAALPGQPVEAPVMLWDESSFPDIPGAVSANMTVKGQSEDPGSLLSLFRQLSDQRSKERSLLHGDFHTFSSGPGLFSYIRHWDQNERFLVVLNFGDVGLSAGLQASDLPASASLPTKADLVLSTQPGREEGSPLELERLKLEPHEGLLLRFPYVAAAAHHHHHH
Description: (§1) The binding kinetics of these purified mouse and rat monoclonal anti-CD98 antibodies for purified recombinant CD98 protein (extracellular domain, ECD) were determined by surface plasmon resonance-based measurements made on Biacore T100/T200 instruments (GE Healthcare, Piscataway, N.J.) at 25° C. using an anti-Fc capture assay approach. Binding kinetic measurements were made in the assay buffer HBS-EP+: 10 mM Hepes, pH 7.4, 150 mM NaCl, 3 mM EDTA, 0.05% Tween 20). For example, approximately 8000 RU of anti-Fc (species specific) polyclonal antibody (Thermo Fisher Scientific Inc., Rockford, Ill.) diluted in 10 mM sodium acetate (pH 4.5) was directly immobilized across a CM5 research grade biosensor chip using a standard amine coupling kit according to manufacturer's instructions and procedures at 25 μg/ml. Unreacted moieties on the biosensor surface were blocked with ethanolamine. The test antibody to be captured as a ligand was diluted in running buffer to ˜0.5 μg/mL and injected over anti-Fc surface at a flow rate of 10 μL/min. CD98 binding and dissociation were observed under a continuous flow rate of 80 μL/min. Human and cynomolgus monkey CD98 ECDs, both with a C-terminal His-tag, are used for this study (Table 3). After each cycle the anti-Fc capture surface was regenerated using 10 mM Glycine-HCl, pH 1.5. During the assay, all measurements were referenced against the capture surface alone (i.e., with no captured test antibody) and buffer-only injections (no antigen) were used for double referencing. For kinetic analysis, rate equations derived from the 1:1 Langmuir binding model were fitted simultaneously, globally and with mass transfer term included to multiple referenced antigen binding curves using Biacore T100/T200 Evaluation software.

[2] = target: T2, Human CD98 ECD with C-terminal His-tag (human, UniProt P08195 105-529); experiment: as above
T2 construct: also called huCD98 ECD; recombinant human CD98 extracellular domain
T2 sequence: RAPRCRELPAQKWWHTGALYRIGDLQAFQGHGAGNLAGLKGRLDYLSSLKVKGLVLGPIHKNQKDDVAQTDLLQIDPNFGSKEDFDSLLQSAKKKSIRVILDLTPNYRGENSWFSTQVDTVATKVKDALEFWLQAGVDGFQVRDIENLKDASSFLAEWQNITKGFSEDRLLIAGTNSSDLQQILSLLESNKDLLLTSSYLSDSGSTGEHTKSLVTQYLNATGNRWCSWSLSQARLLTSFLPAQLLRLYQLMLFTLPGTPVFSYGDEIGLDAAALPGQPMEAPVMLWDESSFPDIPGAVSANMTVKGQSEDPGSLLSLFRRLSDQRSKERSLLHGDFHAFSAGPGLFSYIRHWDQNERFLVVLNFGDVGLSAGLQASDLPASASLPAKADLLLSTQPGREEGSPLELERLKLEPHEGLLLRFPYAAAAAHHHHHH
Description: as §1

[3] = tested on: cynomolgus monkey CD98 ECD (cyCD98 ECD); experiment: Biacore surface plasmon resonance binding kinetics, anti-Fc capture; conditions: framework re-engineered mAbs, Table 24
Description: as §1
(§2) The in vitro binding activities of the recombinant anti-CD98 chimeric mAbs were measured against both recombinant CD98 extracellular domain proteins (ECDs) and CD98-expressing cells. Briefly, binding kinetics of anti-CD98 chimera mAbs for human and cynomolgus CD98 ECDs were determined by surface plasmon resonance-based measurements as described in Example 4. Table 10 reported the association and dissociation rate constants for CD98 binding, ka (M^−1s^−1) and […], and the equilibrium dissociation constant KD (M) of the interaction between antibodies and the target antigen. Binding of anti-CD98 chimera mAbs for CD98 on cell surface was evaluated by flow cytometry against CHO-K1 cell line stably transfected to express human CD98 and 3T12 cell line stably transfected to express cynomolgus monkey CD98. Data was analyzed using Graphpad Prism software and EC50 values were reported as the concentration of antibody to achieve 50% of maximal binding to CD98-expressing cells (Table 10).
(§3) The binding kinetics of the recombinant anti-CD98 chimeric antibodies for purified recombinant CD98 protein (extracellular domain. ECD) were determined by surface plasmon resonance-based measurements, as described in the Example 4.

[4] = target: T3, human CD98 ECD (huCD98 ECD) (Homo sapiens, UniProt P08195); experiment: as above; conditions: framework re-engineered mAbs, Table 24
T3 construct: His6 (with AAA linker) (C)
T3 sequence (P08195 with tags, fused parts or gaps): T2 sequence
Description: as §1, §2, §3

human CD98 = target: T4, human CD98 (Homo sapiens, UniProt P08195); experiment: Binding of humanized anti-CD98 antibodies to human CD98; conditions: humanized variants of huAb3/huAb15 and framework engineered antibodies
T4 sequence (P08195 1-630 isoform P08195-1): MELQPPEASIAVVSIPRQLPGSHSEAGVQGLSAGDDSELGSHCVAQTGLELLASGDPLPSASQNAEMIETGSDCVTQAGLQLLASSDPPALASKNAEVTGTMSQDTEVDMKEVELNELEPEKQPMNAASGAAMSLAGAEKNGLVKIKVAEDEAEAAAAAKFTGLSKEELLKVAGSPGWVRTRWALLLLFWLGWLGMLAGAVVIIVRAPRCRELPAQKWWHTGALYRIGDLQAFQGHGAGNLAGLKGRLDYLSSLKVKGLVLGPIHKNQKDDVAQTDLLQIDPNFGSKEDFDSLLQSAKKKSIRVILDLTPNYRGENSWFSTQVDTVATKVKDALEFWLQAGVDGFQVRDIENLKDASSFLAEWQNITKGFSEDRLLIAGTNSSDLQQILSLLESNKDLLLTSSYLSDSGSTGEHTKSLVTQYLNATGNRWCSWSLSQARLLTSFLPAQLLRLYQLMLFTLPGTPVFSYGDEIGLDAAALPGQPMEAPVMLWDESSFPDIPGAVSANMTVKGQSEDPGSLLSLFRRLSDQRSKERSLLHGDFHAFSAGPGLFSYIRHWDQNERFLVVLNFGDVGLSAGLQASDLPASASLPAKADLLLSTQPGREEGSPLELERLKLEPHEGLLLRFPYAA

B1: Ab13 (antibody, V domains shown)
VH: EVKLQQSGDELVRPGASVKISCKASGYTFTSYSMHWVKERPGQGLEWIGAIFPIIGTTEYNQKFKGKATLTADKSSNTANMELSRLTSEDSAVYYCARVYLSYFDYWGQGVMVTVSS
VL: DIQMTQSPSFLSASVGDRVTINCKASQNINKYLDWYQRKHGEAPKLLIYNTNNLQTGIPSRFSGSGSGTDYTLTISSLQPEDVATYFCLQHSSRYTFGAGTKLELK
notes: also called anti-CD98 hybridoma mAb Ab13
[1]
  Kd: 47 nM
  koff: 0.00088 s⁻¹
  kon: 19000 M⁻¹ s⁻¹
[2]
  Kd: 1.9 nM
  koff: 5.5e-05 s⁻¹
  kon: 29000 M⁻¹ s⁻¹

B2: huAb101: humanized framework engineered anti-CD98 antibody; heavy chain variable SEQ ID NO: 106, light chain variable SEQ ID NO: 107 (antibody, V domains shown)
VH: EVQLVESGGGLVKPGGSLRLSCATSGFTFIDYYMSWVRQAPGKGLEWLGFIRNKANRYTTEYSASVKGRFTISRDNSKSILYLQMNSLKTEDTAVYYCTRDRPAWFVYWGQGTLVTVSS
VL: DIVMTQTPLSLPVTPGEPASISCKSSQSLLYSSNQKNYLAWYLQKPGQSPQLLIYWASTRESGVPDRFSGSGSGTDFTLKISRVEAEDVGVYYCQQYYSYPYTFGGGTKVEIK
[3]
  ka, cynoCD98 ECD: 30000 M⁻¹ s⁻¹
  kd, cynoCD98 ECD: 0.00067 s⁻¹
[4]
  ka, huCD98 ECD: 290000 M⁻¹ s⁻¹
  kd, huCD98 ECD: 0.0018 s⁻¹
Human CD98
  binding to human CD98: maintained binding to human CD98

B3: huAb103: humanized framework engineered anti-CD98 antibody; heavy chain variable SEQ ID NO: 109, light chain variable SEQ ID NO: 107 (antibody, V domains shown)
VH: B2 VH with N56Y, R57G
VL: B2 VL
[3]
  ka, cynoCD98 ECD: 31000 M⁻¹ s⁻¹
  kd, cynoCD98 ECD: 0.00044 s⁻¹
[4]
  ka, huCD98 ECD: 180000 M⁻¹ s⁻¹
  kd, huCD98 ECD: 0.00059 s⁻¹
Human CD98
  binding to human CD98: maintained binding to human CD98

B4: huAb105: humanized framework engineered anti-CD98 antibody; heavy chain variable SEQ ID NO: 111, light chain variable SEQ ID NO: 112 (antibody, V domains shown)
VH: EVQLVESGGGLVQPGGSLRLSCAASGFTFSDYTMAWVRQAPGKGLEWVATIIYSGRGTYYRDAVKGRFTISRDNAKNTLYLQMNSLRAEDTAVYYCARQSDHTYYYWGYFDYWGQGTMVTVSS
VL: B2 VL with S22N, Y31F, S33G, E61Q, V91I, S99D, Y100V, G106Q, V110L
[3]
  ka, cynoCD98 ECD: 38000 M⁻¹ s⁻¹
  kd, cynoCD98 ECD: 5.3e-05 s⁻¹
[4]
  ka, huCD98 ECD: 140000 M⁻¹ s⁻¹
  kd, huCD98 ECD: 2.4e-05 s⁻¹
Human CD98
  binding to human CD98: maintained binding to human CD98

B5: huAb107: humanized framework engineered anti-CD98 antibody; heavy chain variable SEQ ID NO: 114, light chain variable SEQ ID NO: 112 (antibody, V domains shown)
VH: B4 VH with H102D
VL: B2 VL with S22N, Y31F, S33G, E61Q, V91I, S99D, Y100V, G106Q, V110L
[3]
  ka, cynoCD98 ECD: 33000 M⁻¹ s⁻¹
  kd, cynoCD98 ECD: 8.7e-05 s⁻¹
[4]
  ka, huCD98 ECD: 110000 M⁻¹ s⁻¹
  kd, huCD98 ECD: 3.8e-05 s⁻¹
Human CD98
  binding to human CD98: maintained binding to human CD98

B6: huAb109: humanized framework engineered anti-CD98 antibody; heavy chain variable SEQ ID NO: 116, light chain variable SEQ ID NO: 117 (antibody, V domains shown)
VH: B4 VH with S54D, G55A, H102D
VL: B2 VL with S22N, Y31F, S33G, E61Q, V91I, Y100S, G106Q, V110L
[3]
  ka, cynoCD98 ECD: 26000 M⁻¹ s⁻¹
  kd, cynoCD98 ECD: 0.00031 s⁻¹
[4]
  ka, huCD98 ECD: 160000 M⁻¹ s⁻¹
  kd, huCD98 ECD: 0.00017 s⁻¹
Human CD98
  binding to human CD98: maintained binding to human CD98
